The values that follow are results of earlier work, collected in PMC8604983, “A glucagon analogue decreases body weight in mice via signalling in the liver” (Scientific Reports, 2021).

The conditions of the data set: in rodents. How it is done:
Native glucagon has a half-life of approximately 2 min in rodents. To study the effects of sustained GCGR activation, we developed a glucagon analogue (GCG104) through modification of OXM with the aim of reducing its GLP-1R activity and decreasing its rate of clearance. Select amino acid substitutions were made and a C18 lipidated tail was added (Fig. 1a).

On to glucagon [Native glucagon], for which the half-life result was “approximately 2 min”.
